Test results from PMC3965691.

Target: GST-Pin1 (human Pin1, full length, fused to GST) (human) (UniProt Q13526)
Test: pull-down

GST-Pin1 (human Pin1, full length, fused to GST) (human), sequence (Q13526 whole entry, the tested form may be a part): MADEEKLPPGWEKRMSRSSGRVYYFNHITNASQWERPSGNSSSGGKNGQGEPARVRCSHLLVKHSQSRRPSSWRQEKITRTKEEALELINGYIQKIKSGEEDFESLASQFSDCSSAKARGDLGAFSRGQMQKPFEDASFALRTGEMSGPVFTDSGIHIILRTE

| Substance | K0.5 [µM] |
| --- | --- |
| His6-DI-2 (Drosophila phosphatase inhibitor-2) (natural protein) | 0.3 |
| His6-XI-2 (Xenopus phosphatase inhibitor-2) (natural protein) | 0.3 |
